Consider five molecules from patent US10149824B2, “Reverse hexagonal mesophases (HII) and uses thereof” (YISSUM RESEARCH DEVELOPMENT COMPANY OF THE HEBREW …, priority 2009, dated 2018).

Series [1] is classed as in vitro ADME. From the text: FIG. 24 presents the cumulative transdermal transport of 1 wt % desmopressin, (□) via water solution, (Δ) via HII mesophase.
The applicability and efficiency the HII mesophase as carriers for a transdermal delivery of desmopressin as model peptide drug was studied. Such delivery was especially relevant since the high hydrophilicity of this peptide was the main reason for its uncontrolled fast release when used without a proper carrier.
In the case of bulk hexagonal mesophase, reduced values of steady-state flux were obtained for the drug and its permeability coefficients through the skin, as compared to a water solution. In other words, the peptide molecules penetrated more easily and freely through the skin from water solution, than from hexagonal phase vehicles. […] The drug probably accumulated in microfissures and in a three-dimensional network of thin threads of the skin.

The nature of series [2]: ATR-FTIR secondary structure of LSZ as a function of temperature. It is filed as physicochemical. As for the experimental part:
Proteins in general are known for their low stability at high temperatures.
Further temperature increase confirmed the diverse denaturation mechanism. Up to 73° C., the α-helix and the random coil contents decreased in favor of γ-turn formation.

A short description of series [3]: ATR-FTIR secondary structure of LSZ under urea denaturation. It is filed as physicochemical. From the text: The α-helix to β-sheet transition in proteins is highly important for understanding their folding and biological functions. It is recognized that the α→β transition is probably responsible for several conformational diseases, such as Alzheimer disease, where the α-helical forms are normal and the β-sheet forms are amyloidogenic. Urea is an accepted denaturating agent, which may act in several molecular mechanisms. These possible pathways include direct interactions of urea with the protein, indirect effects by decreasing water-water interactions and hydrogen bond strength, and allowing the exposure of nonpolar groups of the protein to the solvent and combinations thereof.
The β-sheet formation was detected by FTIR analysis at 1620 cm^−1 and it was associated with aggregation of the protein, caused by denaturation, in accordance with the literature. In contrast, within the hexagonal mesophase the α-helical conformation stayed intact up to 4M of urea.

The conditions of series [4]: cubic phase; cited from earlier work.
Series [5] in a line: ATR-FTIR secondary structure analysis of LSZ (amide I' band) as a function of pH. Format: physicochemical. As for the experimental part:
The spectra were recorded with 50 scans, with spectral resolution of 2 cm^−1, at room temperature.

A short description of series [6]: In vivo oral delivery of calcitonin in rats, plasma calcium levels. Also noted: species or system Sprague-Dawley rats. Conditions: calcitonin solubilized in hexagonal liquid crystals and/or hexosomes. The method, then: Male Sprague-Dawley rats (Orient Bio Inc, Korea), 7- to 8-weeks old, weighing 250-310 g, were used in the experiments. Animals were housed under a 12-h light-dark cycle, with food and water ad libitum. All animal handling was in accordance with the guidelines of Animal Care and Use Committee of the Korean Institute of Science and Technology.
The technique of cannulation of the jugular vein and arterial has been developed to allow serial blood sampling from an animal. After anesthesia with 0.4 ml/kg of intraperitoneally administered Rumpun/Zoletile [1:2 (v/v)], an incision was made in the skin just above the right clavicle. After preparation of the jugular vein, it was ligated at the distal side. A cannula filled with heparinized normal saline (10 units/ml) was inserted until the tip reached into the right atrium. Arterial cannulation was performed according to the same methods. […]
Calcium concentration at time zero was normalized as the reference level. […] The calcium level in plasma sample was determined using a commercial Calcium Colorimetric Assay Kit (K380-250, Biovision, Mountain View, Calif., USA). In short, plasma calcium was treated with o-cresolphthalein to form a purple colored complex which was measured at 575 nm. […]

Series [7] can be described thus: ATR-FTIR conformational stability of calcitonin in HII mesophase. It is filed as physicochemical. The source says: In order to overcome this problem, calcitonin was solubilized into the reverse hexagonal mesophase of the invention, as disclosed herein. Transition from random coil, which is characteristic to the stable and soluble state of the peptide to α helix and mainly β-sheet, which are responsible for the unfavorable aggregation, was detected using ATR-FTIR (FIG. 31). It is well documented that calcitonin is extremely unstable in aqueous solutions, which is reflected by a significant decrease of random coil content and simultaneous increase in the concentration of α helix and β-sheet. At room temperature this trend is observed already after ˜2 days. Using the ATR-FTIR technique, the embedment of calcitonin into the aqueous channels of HII mesophase was explored, indicating a significant improvement in the stability of the peptide (FIGS. 32a-c). […] Therefore, the opposite tendency of calcitonin stabilization in the hexagonal phase was detected, as compared to a water solution. Only after 27 days, the peptide stability decreased, as reflected by the decrease of the random coil content.

[8] abbreviates: water solution, after urea denaturation (starting from 2M urea).
Where [9] appears, read: water solution, before the urea-induced decrease.

As for `NC(=O)CC[C@@H]1NC(=O)[C@H](Cc2ccccc2)NC(=O)[C@H](Cc2ccc(O)cc2)NC(=O)CCSSC[C@@H](C(=O)N2CCC[C@H]2C(=O)N[C@H](CCCN=C(N)N)C(=O)NCC(N)=O)NC(=O)[C@H](CC(N)=O)NC1=O` [desmopressin], in series [1], the “permeability coefficients through the skin” value was “reduced”, the “release via the HII mesophase” value is given as “sustained release” and the steady-state flux result is “reduced”.

For the molecule “LSZ: hydrophilic protein (14.4 KDa) used as model protein solubilized in the HII mesophase”, the “temperature from which LSZ denaturation occurs” value in series [2] (D2O) was 63 °C. Besides, the random coil content in series [2] (D2O, 60° C.) is on record as about 0.3; in series [2] (D2O, 65° C.), 0.62; in series [2] (LSZ loaded HII mesophase, between 63-65° C.), “preserved”; in series [3] (setting [8]), 0.03; in series [3] (setting [9]), 0.27; in series [3] (water solution, urea (comparison with HII)), 0.06. For the same molecule, the random coil content in series [3] (within the HII mesophase, urea) was found to be 0.18. The α-helix content is listed as about 0.7 in series [2] (D2O, 60° C.); 0.34 in series [2] (D2O, 65° C.); about 0.7 in series [2] (LSZ loaded HII mesophase, 60° C.); 0.61 in series [2] (LSZ loaded HII mesophase, 65° C.); 0.21 in series [3] (setting [8]); 0.73 in series [3] (setting [9]). The molecule further had a α-helix content in series [5] (LSZ solution in D2O, pH 1.5) of 0.78. In addition, the γ-turn content came to 0.1 in series [2] (LSZ loaded HII mesophase, 63-65° C.) and 0 in series [2] (LSZ loaded HII mesophase, before 63-65° C.). For the same molecule, the “β-sheet content within HII mesophase compared to water solution” value in series [3] (urea) is “significantly lower”. Also, the β-sheet content entry in series [3] (water solution, urea denaturation) is given as “up to 0.69”. The “urea concentration up to which α-helical conformation stayed intact” value in series [3] (within the hexagonal mesophase) was “up to 4 M”. Further, in series [4], the “time in which the bulk of the release occurred” value (“time in which the bulk” for short) is “a week”. Also, the “secondary structure on incorporation into hexagonal phase” value in series [5] (HII mesophase, pH 1.5 to 6) was “no modifications”. For the same molecule, the “random coil structure content” value in series [5] (LSZ solution in D2O, pH 1.5) was 0.22; in series [5] (LSZ solution in D2O, pH 11.14), 0.4. For the same molecule, the “random coil content within HII mesophases compared to D2O” value in series [5] (pH from 6 to 11) is “lower”. For the same molecule, in series [5] (pH from 6 to 11), the “α-helix content within HII mesophases compared to D2O” value was “considerably higher”.

Turning to calcitonin, in series [6], the “plasma levels of calcium” value is given as “significantly reduced”. For the same molecule, the “random coil structure content” value in series [7] (in HII mesophase, pH 3 and 5, 27th day) is about 100%. For the same molecule, the “content of α helix and β-sheet forms as a function of time” value in series [7] (in HII mesophase, pH 3 to 9) was “drastically decreased”. In series [7] (in reverse hexagonal phase), the “time after which the peptide stability decreased” value was 27 days. In addition, the “time for which sCT conformational stability is maintained” value in series [7] (solubilized within hexagonal mesophases) is reported as “more than 20 days”.

In the case of “cytochrome C: intermediate sized protein released from cubic phase [reference compound]”, the “time in which the bulk” value in series [4] is on record as “a week”.

B1: myoglobin: intermediate sized protein released from cubic phase (protein, UniProt P68082 2-154, looked up)
Myoglobin: GLSDGEWQQVLNVWGKVEADIAGHGQEVLIRLFTGHPETLEKFDKFKHLKTEAEMKASEDLKKHGTVVLTALGGILKKKGHHEAELKPLAQSHATKHKIPIKYLEFISDAIIHVLHSKHPGDFGADAQGAMTKALELFRNDIAAKYKELGFQG
B1: in series [4], the “time in which the bulk” value is on record as “a week”.
